What is called Kd is the free concentration of one partner at which half of the binding sites on the other are occupied at equilibrium, for simple one-to-one binding. Usually koff stands for a measure of how fast the partners let go of each other. The term kon denotes the rate constant with which the complex forms. A word on the EC50: it is the concentration needed to bring the measured effect to its halfway point.

One experiment deals with T1, Rhesus monkey MUC16-His (rhesus monkey).
T1 construct: The entry includes the C-terminal 6xHis tag; also called membrane-proximal end of the extracellular region of the rhesus monkey MUC16 protein
T1 chain: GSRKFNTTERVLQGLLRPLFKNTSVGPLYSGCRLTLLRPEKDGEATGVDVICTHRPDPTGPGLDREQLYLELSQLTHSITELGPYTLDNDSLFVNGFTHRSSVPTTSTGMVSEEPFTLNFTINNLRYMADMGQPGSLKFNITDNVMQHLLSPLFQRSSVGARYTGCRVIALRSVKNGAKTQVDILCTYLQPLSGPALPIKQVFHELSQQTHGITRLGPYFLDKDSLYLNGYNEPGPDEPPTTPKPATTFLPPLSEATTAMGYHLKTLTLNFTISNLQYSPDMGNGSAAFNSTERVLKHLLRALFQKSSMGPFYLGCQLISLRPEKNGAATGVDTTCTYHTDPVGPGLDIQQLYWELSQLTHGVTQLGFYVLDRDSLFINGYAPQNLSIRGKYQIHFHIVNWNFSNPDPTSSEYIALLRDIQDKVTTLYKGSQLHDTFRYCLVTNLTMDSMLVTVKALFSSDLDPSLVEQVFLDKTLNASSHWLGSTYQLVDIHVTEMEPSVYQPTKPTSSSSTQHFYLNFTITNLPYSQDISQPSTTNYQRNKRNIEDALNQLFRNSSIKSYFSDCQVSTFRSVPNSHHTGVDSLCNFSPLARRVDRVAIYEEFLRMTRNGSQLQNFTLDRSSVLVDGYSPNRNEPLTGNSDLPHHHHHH
The experiment is described as follows: BLI (ForteBio Octet RED96), antibody on AHC sensor, 1:1 model. (In general: In BLI a coated tip is dipped into the sample, and binding shifts an interference pattern.)

In a further experiment the target is T2, Human MUC16-His (human).
T2 construct: The entry includes the C-terminal 6xHis tag; also called membrane-proximal end of the extracellular region of the human MUC16 protein; Human MUC16 protein
T2 chain: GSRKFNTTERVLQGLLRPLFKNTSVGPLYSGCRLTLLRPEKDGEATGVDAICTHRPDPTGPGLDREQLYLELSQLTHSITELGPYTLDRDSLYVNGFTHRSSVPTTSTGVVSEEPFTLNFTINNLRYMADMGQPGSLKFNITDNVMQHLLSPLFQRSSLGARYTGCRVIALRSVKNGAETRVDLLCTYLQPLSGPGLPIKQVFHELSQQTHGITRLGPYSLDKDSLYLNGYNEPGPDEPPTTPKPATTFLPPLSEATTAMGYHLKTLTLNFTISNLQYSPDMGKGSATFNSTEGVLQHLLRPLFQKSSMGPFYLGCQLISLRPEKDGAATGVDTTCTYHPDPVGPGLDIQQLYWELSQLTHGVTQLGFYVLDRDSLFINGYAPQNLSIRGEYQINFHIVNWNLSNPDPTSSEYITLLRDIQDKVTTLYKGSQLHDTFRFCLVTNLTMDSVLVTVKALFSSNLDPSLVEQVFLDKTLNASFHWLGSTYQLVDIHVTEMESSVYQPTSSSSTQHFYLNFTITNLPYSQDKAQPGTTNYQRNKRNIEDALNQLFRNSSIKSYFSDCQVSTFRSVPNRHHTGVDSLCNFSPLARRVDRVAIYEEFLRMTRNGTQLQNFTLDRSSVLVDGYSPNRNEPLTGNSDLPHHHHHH
The description is as above.

Experiment [1] deals with T3, human MUC16 protein (ECT_TM huMuc16) on 293T cells (human).
T3 chain: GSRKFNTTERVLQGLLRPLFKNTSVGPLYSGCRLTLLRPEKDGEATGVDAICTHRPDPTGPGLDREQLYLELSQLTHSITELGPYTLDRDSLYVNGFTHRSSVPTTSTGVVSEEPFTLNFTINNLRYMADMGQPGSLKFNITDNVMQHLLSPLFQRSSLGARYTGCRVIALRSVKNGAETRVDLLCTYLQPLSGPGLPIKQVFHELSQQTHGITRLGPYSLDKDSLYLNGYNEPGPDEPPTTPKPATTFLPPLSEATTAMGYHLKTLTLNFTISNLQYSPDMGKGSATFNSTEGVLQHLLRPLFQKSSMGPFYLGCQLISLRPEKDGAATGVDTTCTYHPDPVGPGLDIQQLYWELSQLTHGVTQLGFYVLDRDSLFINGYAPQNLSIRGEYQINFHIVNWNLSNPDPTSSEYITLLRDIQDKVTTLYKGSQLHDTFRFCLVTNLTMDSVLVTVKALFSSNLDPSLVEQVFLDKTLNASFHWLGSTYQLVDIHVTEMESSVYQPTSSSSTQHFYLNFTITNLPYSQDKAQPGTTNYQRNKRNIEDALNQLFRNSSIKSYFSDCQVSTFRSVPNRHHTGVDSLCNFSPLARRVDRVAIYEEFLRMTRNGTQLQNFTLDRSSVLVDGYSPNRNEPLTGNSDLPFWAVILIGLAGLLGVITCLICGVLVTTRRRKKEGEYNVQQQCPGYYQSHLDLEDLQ
The experiment is described as follows: flow cytometry, 293T/hMUC16 cells, PE anti-human IgG Fc secondary, MFI; EC50 table under the plot, unit from the axis Conc.(nM). On the procedure:
The serially diluted anti-human MUC16 antibodies (at an initial concentration of 200 nM, 4-fold dilution, 8 points in total) obtained in the present application were added to the cells, and the cells were incubated at 4° C. for 30 min. The cells were washed twice with PBS, and then fluorescent secondary antibody R-PE-conjugated AffiniPure Goat Anti-Human IgG, Fcγ Fragment Specific (Jackson ImmunoResearch, Cat #109-116-098) was added. The cells were incubated at 4° C. for 30 min. The cells were washed twice with PBS and then resuspended, and finally, fluorescence signals were detected using a BD Accuri C5 (BD Bioscience) flow cytometer.
(A flow cytometer gives signals particle by particle.)

B1: humanized anti-MUC16 antibody Hu-L4H7 (antibody, human IgG1, kappa, L234A L235A, V domains shown)
VH: QVQLVQSGAEVKKPGASVKVSCKASGYTFTDYNIHWVRQAPGQGLEWMGYIYPYNGVSDYNQNFKSRVTMTTDTSTSTAYMELRSLRSDDTAVYYCARWDFGSGYYFDYWGQGTLVTVSS
VL: EIVLTQSPATLSLSPGERATLSCRASSSVIYMSWYQQKPGQAPRLLIYGTSTLASGIPARFSGSGSGTDFTLTISSLEPEDFAVYYCQQWSSNPFTFGQGTKLEIKR
notes: human IgG1 with L234A, L235A, D265A, P329A and kappa; Biotinylated in the CA125 ELISA; also called humanized MUC-16 antibody
For the molecule B1, in the experiment with Rhesus monkey MUC16-His, the Kd was 1.04 nM, the koff amounted to 0.000263 s⁻¹ and the kon came to 254000 M⁻¹ s⁻¹. For the same molecule, in the experiment with Human MUC16-His, binding was characterised by a dissociation constant (Kd) of 2.9 nM, the koff came out at 0.000911 s⁻¹ and the kon was found to be 314000 M⁻¹ s⁻¹.

B2: anti-MUC16 antibody 776.1(C33S) (antibody, human IgG1, kappa, L234A L235A, V domains shown)
VH: EVQLQQSGPELVKPGASVKISCKASGYTFTDYNIHWVKQSHGKILEWIGYIYPYNGVSDYNQNFKSKATLIVDNSSNTAYMELRSLTSEDSAVYYCARWDFGSGYYFDYWGQGTTLTVSS
VL: QIVLSQSPAILFASPGETVTMTCRASSSVIYMSWNQQKPGSSPKPWIYGTSTLASGVPTRFSGSGSGTSYSLTISRVEAEDAATYYCQQWSSNPFTFGSGTKLEIKR
In turn, B2 gave an EC50 in experiment [1] of 12.9 nM.

(Values after patent publication US20250092135A1 (NANJING LEADS BIOLABS, published 2025).)
